Reference: patent US20180371460, “Depletion of Abundant Serum Proteins to Facilitate Biomarker Discovery” (UNIVERSITY OF UTAH RESEARCH FOUNDATION, published 2018)

Tests used:
[1] = biological target: T1, Human serum albumin (HSA), denatured (Homo sapiens, UniProt P02768 P02768:25-609); test: pulldown; 1% surfactant, 50 mM DTT or 25 mM TCEP, PBS pH 7.4, 40 ug/mL HSA; details: tags: none; denatured with 1% surfactant and reduced with DTT or TCEP; label: 5'-fluorescein (gel shift) or 5'-thiol-hexaethylene glycol on agarose (pull-down)
T1 sequence (P02768 25-609, one chain of several): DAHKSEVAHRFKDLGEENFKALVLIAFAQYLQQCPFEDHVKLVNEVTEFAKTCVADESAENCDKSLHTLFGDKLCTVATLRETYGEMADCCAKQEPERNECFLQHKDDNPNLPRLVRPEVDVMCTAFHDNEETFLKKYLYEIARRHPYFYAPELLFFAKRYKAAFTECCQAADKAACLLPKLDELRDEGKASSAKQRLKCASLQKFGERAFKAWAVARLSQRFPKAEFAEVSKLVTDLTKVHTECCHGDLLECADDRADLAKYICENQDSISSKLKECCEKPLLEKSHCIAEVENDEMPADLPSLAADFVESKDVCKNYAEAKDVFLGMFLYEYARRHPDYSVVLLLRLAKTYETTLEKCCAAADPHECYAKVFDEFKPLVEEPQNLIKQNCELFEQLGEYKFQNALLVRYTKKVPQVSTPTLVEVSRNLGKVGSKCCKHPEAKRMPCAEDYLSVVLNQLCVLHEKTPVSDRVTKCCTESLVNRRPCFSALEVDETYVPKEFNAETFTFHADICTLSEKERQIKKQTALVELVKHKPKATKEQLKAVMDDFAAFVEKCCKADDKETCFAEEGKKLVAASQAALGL
Protocol: The beads were equilibrated with 3 bed volumes of the binding buffer used during the pull-down prior to protein addition. Protein (40 μg/mL) was then added to the columns and placed on a nutating mixer for 45 min followed by 15 minutes of stationary incubation. The supernatant was then collected via centrifugation. The resin was then washed twice with 700 μL binding buffer, collecting the flow-through each time. Bound protein was then eluted using 300 μL 4 M urea with 0.1% surfactant and repeated to recover all bound protein. For each elution, the column was placed on a nutating mixer for 30 min. The A280 was then measured for each aliquot to determine the percent bound.

[2] = biological target: T1, Human serum albumin (HSA), denatured; test: EMSA; tested in lane 7, not listed among binders; PBS pH 6, 50 mM DTT, 1% SDS; details: tags: none; denatured with 1% surfactant and reduced with DTT or TCEP; label: 5'-fluorescein
Protocol: (§1) Gel shift assays were then performed to determine which of these nucleic acids would bind to HSA under denaturing and reducing conditions. Specifically, 40 nmol of the fluorescein labeled DNA was incubated with 3 μM denatured HSA in PBS (pH=6) containing 50 mM fresh DTT and 1% SDS at room temperature for 1 hr. The samples were then run on an 8% nondenaturing gel (PBS pH=6, 0.1% SDS) at 100 V for 1 hour at 4° C. The gels were imaged using a Typhoon FLA 9500 gel imager using a 473 nm laser and an LPB filter. FIG. 12 is a representative gel showing the results of the gel shaft assays for the fluorescein labeled forms of the following nucleic acids: 35 (lane 1), 36 (lane 2), 40 (lane 3), H1 (lane 4), H2 (lane 5), H3 (lane 6) and H5 (lane 7).

[3] = biological target: T1, Human serum albumin (HSA), denatured; test: EMSA; tested in lane 6, not listed among binders; PBS pH 6, 50 mM DTT, 1% SDS; details: tags: none; denatured with 1% surfactant and reduced with DTT or TCEP; label: 5'-fluorescein
Protocol: as §1

[4] = biological target: T1, Human serum albumin (HSA), denatured; test: EMSA; tested in lane 4, not listed among binders; PBS pH 6, 50 mM DTT, 1% SDS; details: tags: none; denatured with 1% surfactant and reduced with DTT or TCEP; label: 5'-fluorescein
Protocol: as §1

[5] = biological target: T1, Human serum albumin (HSA), denatured; test: EMSA; tested in lane 1, not listed among binders; PBS pH 6, 50 mM DTT, 1% SDS; details: tags: none; denatured with 1% surfactant and reduced with DTT or TCEP; label: 5'-fluorescein
Protocol: as §1

[6] = biological target: T1, Human serum albumin (HSA), denatured; test: pulldown; 1% SDS or Tween 80 with 50 mM DTT, or 1% Tween 80 with 25 mM TCEP, PBS pH 7.4; blank beads control; details: tags: none; denatured with 1% surfactant and reduced with DTT or TCEP; label: 5'-fluorescein (gel shift) or 5'-thiol-hexaethylene glycol on magnetic beads (pull-down)
Protocol: Pull-down. HSA (2 mg/mL from Gemini) was denatured in 1% surfactant (either Tween 80 or SDS) and 50 mM DTT in PBS (pH=7.4) for 1 hr. The binding buffers consisted of 50 mM freshly prepared DTT. The beads were equilibrated with 2 mL of the binding buffer used during the pull-down prior to protein addition. Protein (40 μg/mL) was then added to the columns and these were placed on a nutating mixer for 1 hr. The samples were then placed on the magnetic separation stand for 4 min, and the supernatant was removed. The beads were then washed twice with 1 mL binding buffer, collecting the supernatant each time. Bound protein was eluted using 300 μL of 4M urea with 0.1% surfactant and repeated to recover all bound protein. For each elution, the beads were incubated at 95° C. for 10 min. The beads were regenerated by rinsing with 1 mL of 1M NaCl followed by 2 mL of PBS. They were then stored in PBS in the refrigerator.
The aliquots were then concentrated using a 10 kDa Amicon spin filter. The samples were run on a NuPAGE™ Novex™ 4-12% Bis-Tris protein gel at 200 V for 40 min and stained with Spyro Ruby. The gels were visualized with a Typhoon FLA 9500 gel imager using a 473 nm laser and an LPG filter. FIG. 13 is a gel showing the results of the pull down (using nucleic acid 36) of HSA denatured with SDS (upper image) or Tween 80 (lower image) and reduced with DTT.
HSA binding with TCEP. […]

[7] = biological target: T1, Human serum albumin (HSA), denatured; test: EMSA; tested in lane 5, not listed among binders; PBS pH 6, 50 mM DTT, 1% SDS; details: tags: none; denatured with 1% surfactant and reduced with DTT or TCEP; label: 5'-fluorescein
Protocol: as §1

B1: H6 (ssDNA)
DNA: GCGCATACCAGCTTATTCAATTGCGTACCTAGGATTTACTTTCTCAAGATATTTGGAGTGACAAGTGGCATAAGATAGTAAGTGCAATCTCGGC
With B1 the binding signal [1] was 10 % HSA bound.

B2: H5 (ssDNA)
DNA: GCGCATACCAGCTTATTCAATTAGGAACGCACCCGAGTGTTGCGCGAGCCAGTGGCTGGTTGGCCCGTATAAGATAGTAAGTGCAATCTCGGC
B2: no binding [2].

B3: H3 (ssDNA)
DNA: GCGCATACCAGCTTATTCAATTGATCCATACAAGGGTAGGTTGACTTCCGCCCAAGGGGGCGAGGCCGTGAGATAGTAAGTGCAATCTCGGC
B3: no binding [3].

B4: 40 (ssDNA)
DNA: GCGCATACCAGCTTATTCAATTCGGTAGTGCAGCGGCTTGAAATCAGCCGTGCTTTCGGGACGGAACTACTCAGATAGTAAGTGCAATCTCGGC
Binder B4 has a binding signal [1] of 10.3 % HSA bound.

B5: H1 (ssDNA)
DNA: GCGCATACCAGCTTATTCAATTACGCTCAGGACTAAAAATGGGCGTGACCATGAGCTCAGTATGGGCGTTACAGATAGTAAGTGCAATCTCGGC
B5: no binding [4].

B6: 35 (ssDNA)
DNA: GCGCATACCAGCTTATTCAATTCGGTACGTGACGCAAAAAAGGTCGGGCGGCTGACATGGCACCTCGTCTAAAGATAGTAAGTGCAATCTCGGC
B6: no binding [5].

B7: P1 (ssDNA)
DNA: GCGCATACCAGCTTATTCAATTGCATAGTCATGCGGGAATAGTTTTCGATGAGGGCTATTGGAGGCCCCAGCAGATAGTAAGTGCAATCTCGGC
Work on B7 yielded a binding signal [1] of 12.7 % HSA bound.

B8: 19 (ssDNA)
DNA: GCGCATACCAGCTTATTCAATTAACGTGTAGAGGTGTTCACGCACCACGCCGACTGTGGTTGACCCACAGTTAGATAGTAAGTGCAATCTCGGC
B8 gave a binding signal [1] of 10.3 % HSA bound.

B9: 36 (ssDNA)
DNA: GCGCATACCAGCTTATTCAATTCGGATAGACAACATGGGGAAGAACAGTGTCTAGTCGTGGGTTGCTCTGTAAGATAGTAAGTGCAATCTCGGC
B9: binds [6].

B10: H2 (ssDNA)
DNA: GCGCATACCAGCTTATTCAATTTCAAAGGCTGACCGGATGGGCTTCGTGACCGGGTACGCCACTGCCTCGTGAGATAGTAAGTGCAATCTCGGC
B10: no binding [7].
